Measured values published in publication PMC9352680, “A comprehensive thermodynamic model for RNA binding by the Saccharomyces cerevisiae Pumilio protein PUF4”.

T1: PUF4 RNA-binding domain (Saccharomyces cerevisiae, UniProt P25339 537-888)
T1 sequence: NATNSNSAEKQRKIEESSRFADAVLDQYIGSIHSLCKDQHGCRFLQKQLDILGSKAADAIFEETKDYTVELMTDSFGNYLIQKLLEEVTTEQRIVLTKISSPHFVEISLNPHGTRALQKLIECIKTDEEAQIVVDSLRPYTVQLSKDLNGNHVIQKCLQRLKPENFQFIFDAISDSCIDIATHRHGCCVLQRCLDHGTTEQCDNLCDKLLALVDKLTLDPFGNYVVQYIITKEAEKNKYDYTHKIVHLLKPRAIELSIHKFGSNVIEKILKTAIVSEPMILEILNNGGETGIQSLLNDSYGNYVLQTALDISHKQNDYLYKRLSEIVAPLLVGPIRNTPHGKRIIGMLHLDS


Biological target: T1, PUF4 RNA-binding domain
Assay: Mg; RNA-MaP; 20 mM Na-HEPES pH 7.4, 30 mM KOAc, 0.75 mM MgCl2, 0.1% Tween-20, 5% glycerol, 0.1 mg/mL BSA, 2 mM DTT; 25 C; 0.0125-409.6 nM protein
Settings: tags: N-His6-TEV cleaved; C-SNAP kept, Cy3B-labelled; label: tethered on chip by stalled RNA polymerase

| Binder | Kd [nM] |
| --- | --- |
| UCUCUUUCAUGUAUUUAAGUUCUCUU (ssRNA) [Id_iii_S1_P4E.9_K4.5_C4.3_[T-1A]_H4.1_A4.2_F4.2_T4.2] | 648 |
| UCUCUUUCUUGUAUUUAACUUCUCUU (ssRNA) [Id_iii_S1_P4E.9_K4.5_C4.3_H4.1_A4.2_F4.2_T4.2_[G10C]] | 70.1 |
| UCUCUUUGUACACUUAUUAUAUCUCUU (ssRNA) [Id_iii_S1_P5E.7_K5.3_C5.3_[C-2G]_H5.3_A5.1_F5.1_T5.2] | 3.9 |
| UCUCUUUGUUUAAUUAUCUCUU (ssRNA) [Ib_S1_P5E.1_K5.1_C5.1_H5.1_[A4T]_A5.1_[T6A]_F5.1_T5.1] | 44.6 |
| UCUCUUUCUUGUAUUAUUAAAUCUCUU (ssRNA) [Id_iii_S1_P5E.5_K5.1_C5.3_H5.1_A5.1_F5.1_T5.2_[T11A]] | 11.1 |
| UCUCUUUCCACACUUAUUAUAUCUCUU (ssRNA) [Id_iii_S1_P5E.7_K5.3_C5.3_[T-1C]_H5.3_A5.1_F5.1_T5.2] | > 2300 |
| UCUCUUCCUUGUAAUAUUAUAUCUCUU (ssRNA) [Id_iii_S1_P5E.8_K5.4_C5.3_[T-3C]_H5.1_A5.2_F5.1_T5.2] | 8.43 |
| UCUCUUUCUACACUUAUUACAUCUCUU (ssRNA) [Id_iii_S1_P5E.7_K5.3_C5.3_H5.3_A5.1_F5.1_T5.2_[T11C]] | > 2300 |
| UCUCUUUCUUAUAUUAUUAUCUCUCUU (ssRNA) [Id_iii_S1_P5E.6_K5.2_C5.3_H5.2_A5.1_F5.1_T5.2_[A12C]] | 471 |
| UCUCUUUGUAUUUUUAUCUCUU (ssRNA) [Ia_S1_P5E.1_K5.1_C5.1_H5.1_A5.1_[A7T]_F5.1_T5.1] | 3.57 |
| UCUCUUCCUACACUUAUUAUAUCUCUU (ssRNA) [Id_iii_S1_P5E.7_K5.3_C5.3_[T-3C]_H5.3_A5.1_F5.1_T5.2] | > 2300 |
| UCUCUUUCUACACUUAUUAUUUCUCUU (ssRNA) [Id_iii_S1_P5E.7_K5.3_C5.3_H5.3_A5.1_F5.1_T5.2_[A12T]] | > 2300 |
| UCUCUUUCUUGUAUUAUUAUUUCUCUU (ssRNA) [Id_iii_S1_P5E.5_K5.1_C5.3_H5.1_A5.1_F5.1_T5.2_[A12T]] | 4.34 |
| UCUCUUUCUUAUAUUAUUACAUCUCUU (ssRNA) [Id_iii_S1_P5E.6_K5.2_C5.3_H5.2_A5.1_F5.1_T5.2_[T11C]] | 450 |
| UCUCUUUCUUAUAUUAUUAUUUCUCUU (ssRNA) [Id_iii_S1_P5E.6_K5.2_C5.3_H5.2_A5.1_F5.1_T5.2_[A12T]] | 372 |
| UCUCUUUUUUGUAUUUAAGUUCUCUU (ssRNA) [Id_iii_S1_P4E.9_K4.5_C4.3_[C-2T]_H4.1_A4.2_F4.2_T4.2] | 618 |
| UCUCUUACUACACUUAUUAUAUCUCUU (ssRNA) [Id_iii_S1_P5E.7_K5.3_C5.3_[T-3A]_H5.3_A5.1_F5.1_T5.2] | 1570 |
| UCUCUUUCUUAUAUUAUUAAAUCUCUU (ssRNA) [Id_iii_S1_P5E.6_K5.2_C5.3_H5.2_A5.1_F5.1_T5.2_[T11A]] | 551 |
| UCUCUUUCUUGUAUUAUUAUCUCUCUU (ssRNA) [Id_iii_S1_P5E.5_K5.1_C5.3_H5.1_A5.1_F5.1_T5.2_[A12C]] | 6 |
| UCUCUUUAUACACUUAUUAUAUCUCUU (ssRNA) [Id_iii_S1_P5E.7_K5.3_C5.3_[C-2A]_H5.3_A5.1_F5.1_T5.2] | 720 |
| UCUCUUUGUGUUUUUAUCUCUU (ssRNA) [Ib_S1_P5E.1_K5.1_C5.1_H5.1_[A4G]_A5.1_[A7T]_F5.1_T5.1] | 26.8 |
| UCUCUUUCGUGUAUUUAAGUUCUCUU (ssRNA) [Id_iii_S1_P4E.9_K4.5_C4.3_[T-1G]_H4.1_A4.2_F4.2_T4.2] | 694 |
| UCUCUUUCUUGUAUUAUUAUGUCUCUU (ssRNA) [Id_iii_S1_P5E.5_K5.1_C5.3_H5.1_A5.1_F5.1_T5.2_[A12G]] | 8.55 |
| UCUCUUUCUACACUUAUUAUGUCUCUU (ssRNA) [Id_iii_S1_P5E.7_K5.3_C5.3_H5.3_A5.1_F5.1_T5.2_[A12G]] | > 2300 |
| UCUCUUUCCUGUAUUUAAGUUCUCUU (ssRNA) [Id_iii_S1_P4E.9_K4.5_C4.3_[T-1C]_H4.1_A4.2_F4.2_T4.2] | 460 |
| UCUCUUUCUUGUAUUUAAAUUCUCUU (ssRNA) [Id_iii_S1_P4E.9_K4.5_C4.3_H4.1_A4.2_F4.2_T4.2_[G10A]] | 96.9 |
